T1: human interleukin-2 receptor α-chain (IL-2Rα; CD25), recombinant protein (human, UniProt P01589 22-240, limits assumed)
T1 construct: also called huIL2R-a; hIL-2RA
T1 sequence: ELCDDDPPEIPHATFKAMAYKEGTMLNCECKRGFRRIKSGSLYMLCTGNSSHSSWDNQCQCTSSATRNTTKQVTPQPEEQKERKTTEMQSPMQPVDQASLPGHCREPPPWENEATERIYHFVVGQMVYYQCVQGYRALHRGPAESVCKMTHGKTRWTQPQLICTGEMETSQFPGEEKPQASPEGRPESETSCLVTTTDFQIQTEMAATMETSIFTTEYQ

T2: cynomolgus monkey IL-2Rα/CD25 subunit (cynomolgus monkey, UniProt H6WS54 22-213)
T2 construct: also called Cyno IL-2R subunit
T2 sequence: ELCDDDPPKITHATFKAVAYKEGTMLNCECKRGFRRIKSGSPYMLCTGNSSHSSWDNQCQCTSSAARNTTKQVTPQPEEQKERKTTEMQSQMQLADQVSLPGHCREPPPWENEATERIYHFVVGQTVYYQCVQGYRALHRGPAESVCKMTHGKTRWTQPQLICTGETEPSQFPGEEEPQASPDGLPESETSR

B1: 6-MP01G05 VHH-hFc, monospecific bivalent (Fc fusion)
chain: QVQLQESGGGLVQAGGSLRLSCAASGRTFSSYAMGWFRQAPGKEREFVAVISWNVDNTEYTDSVKGRFTISRDNDKNMVYLQMNSLKPEDTAVYYCAADSIPLSSDMSPTATEYGYWGQGTQVTVSS
notes: IgG1 Fc LALA-PG; not shown: human IgG1 CH2 and CH3 domains (Fc)
B2: 6-MP01G05 VHH (periplasmic extract) (VHH)
VHH: QVQLQESGGGLVQAGGSLRLSCAASGRTFSSYAMGWFRQAPGKEREFVAVISWNVDNTEYTDSVKGRFTISRDNDKNMVYLQMNSLKPEDTAVYYCAADSIPLSSDMSPTATEYGYWGQGTQVTVSS
notes: soluble VHH in periplasmic extract
B3: 9-MP05G01 VHH-hFc, monospecific bivalent (Fc fusion)
chain: EVQLVESGGGLVQAGGSLRLSCAASGGSIYTYNMGWFRQAPGKEREFVAGTLWSGGDSVYADFAKGRFTLSRENAKNTLYLQMNSLKPEDTATYYCAIDPLSLTSDWRVDELSSWGKGTLVTVSS
notes: as for B1
B4: 12-MP05B12 VHH-hFc, monospecific bivalent (Fc fusion)
chain: QVQLVESGGGLVQAGGSLRLSCAASGFTFDGYAIGWFRQAPGKEREGVSYITGSDGSTYYADSVKGRFTISSNNAKNTVYLHMNSLKPDDAAVYYCAIDRLGSRGAYVPIWWRSSDMDLWGKGTLVTVSS
notes: as for B1
B5: 13-MP05E12 VHH-hFc, monospecific bivalent (Fc fusion)
chain: QVQLQESGGGLVQAGDSLRLSCAASGFNFGWHAMGWFRQAPGKEREFVATITWTGRDTYYADSVRGRFTISKDNAKDTLFLQMNSLRPDDTGVYYCAKARERATWAYSEDDCDYWGQGTQVTVSS
notes: as for B1
B6: 1-MP01H01 VHH (periplasmic extract) (VHH)
VHH: EVQLVESGGGLVQAGGSLRLSCAASGRTFRTHNMGWFRRAPGKEREFVAAISWNVDNTLYADSVKGRFTISRDNGRNMVYLQMNSLKPEDTAVYYCAADNIPLSSDVAATATEYDYWGQGTQVTVSS
notes: as for B2
B7: 4-MP01F04 VHH-hFc, monospecific bivalent (Fc fusion)
chain: QVQLVESGGGLVQAGGSLRLSCAASGGTFRTRNMGWFRRAPGKEREFVAAVSWNVDNKLYADSVKGRFTISRDNGRNMVYLQMNSLKPEDTAVYYCAADNIPLSSDMRPTATEYDYWGQGTQVTVSS
notes: as for B1
B8: 7-MP01G08 VHH-hFc, monospecific bivalent (Fc fusion)
chain: EVQLVESGGGLVQAGGSLRLSCAASGRAFSMYNMGWFRQAPGKEREFVAATGWSGANTPYADSVKGRFTISRDNTQNTVYLQMNSLKPEDTATYYCAADSIRLRSDVTRIPLEYDYWGQGTQVTVSS
notes: IgG1 Fc LALA-PG; also called 07-MP01G08; not shown: human IgG1 CH2 and CH3 domains (Fc)
B9: 10-MP05F03 VHH-hFc, monospecific bivalent (Fc fusion)
chain: QVQLVESGGGLVQAGGSLRLSCAASGIPFDNYAMGWFRQAPGKEREFVAARDLEGIITRYGDSVKGRFTISRGNAKNTVFLQMNSLKPEDTAVYYCAARDGGVVAGSRSSAQYNYWGQGTQVTVSS
notes: IgG1 Fc LALA-PG; also called anti-IL-2Rα Ab 10; anti-IL-2Rα VHH 10; not shown: human IgG1 CH2 and CH3 domains (Fc)
B10: 10-MP05F03 VHH (periplasmic extract) (VHH)
VHH: QVQLVESGGGLVQAGGSLRLSCAASGIPFDNYAMGWFRQAPGKEREFVAARDLEGIITRYGDSVKGRFTISRGNAKNTVFLQMNSLKPEDTAVYYCAARDGGVVAGSRSSAQYNYWGQGTQVTVSS
notes: as for B2
B11: 3-MP01E03 VHH-hFc, monospecific bivalent (Fc fusion)
chain: QVQLVESGGGLVQAGGSLRLSCTASGRTLSSYSMAWFRQAADKGREFVTAISSSGVVTHVLDSVKGRFTISRDNAKNTVYLQMNSLQPEDTALYFCAGTASSYSTYEANYNYWGQGTLVTVSS
notes: as for B1
B12: 3-MP01E03 VHH (periplasmic extract) (VHH)
VHH: QVQLVESGGGLVQAGGSLRLSCTASGRTLSSYSMAWFRQAADKGREFVTAISSSGVVTHVLDSVKGRFTISRDNAKNTVYLQMNSLQPEDTALYFCAGTASSYSTYEANYNYWGQGTLVTVSS
notes: as for B2
B13: 5-MP01F05 VHH-hFc, monospecific bivalent (Fc fusion)
chain: EVQLVESGGGLVQAGGSLRLSCAASIRAFTTWSMAWFRQAPGKEREYVARINVSGSVTYYADFVKGRFTISRDNAKKTMYLEMNNLKPEDTALYYCAADRTGVGTNDYNYWGQGTQVTVSS
notes: as for B1
B14: 5-MP01F05 VHH (periplasmic extract) (VHH)
VHH: EVQLVESGGGLVQAGGSLRLSCAASIRAFTTWSMAWFRQAPGKEREYVARINVSGSVTYYADFVKGRFTISRDNAKKTMYLEMNNLKPEDTALYYCAADRTGVGTNDYNYWGQGTQVTVSS
notes: as for B2
B15: 11-MP05H04 VHH-hFc, monospecific bivalent (Fc fusion)
chain: QLQLVESGGGLVQAGGSLRLSCAASGLTFEGYAIGWFRQAPGKEREGVSYITGSDGTTYYINSVKGRFTISSDNAKSTVYLQMNTLKPEDTAVYYCAVDRLGSQGRYASAWWRSGDMDLWGKGTQVTVSS
notes: as for B1
B16: 2-MP01A02 VHH-hFc, monospecific bivalent (Fc fusion)
chain: QVQLVESGGGLVQPGGSLRLSCATSGFTFRNNFMSWVRQAPGKGLEWVSTISYGGESTTYAESVKGRFTISRDNAKNTLYLQMNNLKPEDTAVYYCAKATSYDSIRSGSRGQGTQVTVSS
notes: IgG1 Fc LALA-PG; also called anti-IL-2Rα Ab 2; not shown: human IgG1 CH2 and CH3 domains (Fc)
B17: 2-MP01A02 VHH (periplasmic extract) (VHH)
VHH: QVQLVESGGGLVQPGGSLRLSCATSGFTFRNNFMSWVRQAPGKGLEWVSTISYGGESTTYAESVKGRFTISRDNAKNTLYLQMNNLKPEDTAVYYCAKATSYDSIRSGSRGQGTQVTVSS
notes: as for B2
B18: 8-MP01C12 VHH-hFc, monospecific bivalent (Fc fusion)
chain: QVQLVESGGGLVQPGGSLRLSCATSGFTFSNNFMSWVRQAPGKGLEFVSTISYGGESTTYAEAVKGRFTISRDNAKNTLYLQMNNLKPEDTAIYYCAKATSYTSIRGAPRGQGTQVTVSS
notes: IgG1 Fc LALA-PG; also called anti-IL-2Rα Ab 8; anti-IL-2Rα VHH 8; not shown: human IgG1 CH2 and CH3 domains (Fc)
B19: 8-MP01C12 VHH (periplasmic extract) (VHH)
VHH: QVQLVESGGGLVQPGGSLRLSCATSGFTFSNNFMSWVRQAPGKGLEFVSTISYGGESTTYAEAVKGRFTISRDNAKNTLYLQMNNLKPEDTAIYYCAKATSYTSIRGAPRGQGTQVTVSS
notes: as for B2

What was measured:
[1] = target: T1, human interleukin-2 receptor α-chain …; test: ELISA, bivalent VHH-hFc
Experimental: (§1) Monospecific monovalent and bivalent IL-2Rα-, IL-2Rβ- and IL-2Rγ-specific antibodies that were selected on human IL-2R subunits, were evaluated for their cross-reactivity in an ELISA. Human and cynomolgus monkey receptor subunits (Acrobiosystems, KactusBiosystems) were coated at 1 μg/mL in PBS (pH 7.4) in a Maxisorp plate (Nunc) and incubated overnight at 4° C. The plates were further washed with PBS-Tween pH 7.4 and incubated with 1% cascin/PBS-Tween blocking solution for 1 hour shaking at 400 rpm. Subsequently, the plate was washed three times with PBS-Tween pH 7.4, after which the test antibodies diluted in 0.1% casein/PBS-Tween were added to the plate and incubated for 1 hour. The plate was again washed three times, after which goat anti-human IgG Fc (HRP) detection antibody (abcam) was added to the plate and incubated for 30 min. The colouring reaction was performed with TMB (Sigma-Aldrich) and stopped with 0.5N H₂SO₄.
(§2) Absorbance was measured at 450 nm with the reference wavelength of 620 nm using spectrophotometer. Final analysis and graphic output were performed with GraphPad Prism version 8 (GraphPad Software). The dose-response binding curves were fit to a nonlinear regression model (log (agonist) vs. response with a variable slope (four parameters)).

[2] = target: T2, cynomolgus monkey IL-2Rα/CD25 subunit; test: ELISA, bivalent VHH-hFc
Experimental: as §1, §2

[3] = target: T2, cynomolgus monkey IL-2Rα/CD25 subunit; test: ELISA, bivalent; EC50 cyno vs human subunit
Experimental: as §1, §2

[4] = target: T1, human interleukin-2 receptor α-chain …; test: P.E. off-rate SPR
In short: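 First, the IL-2R protein is immobilised via amine coupling in acetate buffer to roughly 2500 RU on a CM5 sensor chip. Next, the VHH extract is loaded at 30 uL/min. Finally, dissociation is recorded for 120s.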

[5] = target: T1, human interleukin-2 receptor α-chain …; test: P.E. binding ELISA
In short: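 Human or mouse IL-2Rα, IL-2Rβ or IL-2Rγ protein coated directly overnight at 4° C, blocked with 4% Marvel/PBS for 1 hour.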

| Binder | EC50 [1] | EC50 [2] | Fold change [3] | koff [4] | OD450 nm [5] |
| --- | --- | --- | --- | --- | --- |
| B1 | 0.056 nM | 0.05 nM | 0.9 fold |  |  |
| B2 |  |  |  | 0.0206 s⁻¹ | 1.79 OD450 nm |
| B3 | 0.065 nM | 0.062 nM | 1 fold |  |  |
| B4 | 0.074 nM | 0.084 nM | 1.1 fold |  |  |
| B5 | 0.049 nM | 0.051 nM | 1 fold |  |  |
| B6 |  |  |  | 0.0229 s⁻¹ | 1.71 OD450 nm |
| B7 | 0.053 nM | 0.056 nM | 1.1 fold |  |  |
| B8 | 0.072 nM | 0.067 nM | 0.9 fold |  |  |
| B9 | 0.061 nM | 0.06 nM | 1 fold |  |  |
| B10 |  |  |  | 0.000639 s⁻¹ | 2.46 OD450 nm |
| B11 | 0.057 nM | 0.106 nM | 1.9 fold |  |  |
| B12 |  |  |  | 0.000799 s⁻¹ | 2.54 OD450 nm |
| B13 | 0.06 nM | 0.095 nM | 1.6 fold |  |  |
| B14 |  |  |  | 0.00042 s⁻¹ | 2.62 OD450 nm |
| B15 | 0.093 nM | 0.11 nM | 1.2 fold |  |  |
| B16 | 0.038 nM | 0.043 nM | 1.1 fold |  |  |
| B17 |  |  |  | 0.00153 s⁻¹ | 2.62 OD450 nm |
| B18 | 0.051 nM | 0.054 nM | 1.1 fold |  |  |
| B19 |  |  |  | 0.000383 s⁻¹ | 2.53 OD450 nm |
